Our source for the Kd values is article PMC5114558 (2016).

Several values for one entry are separate records, joined by “and”; a condition that tells them apart may be missing. Identical values can stand only once. Like-named read-outs stand apart in the source and are kept apart here. Non-standard residues stand in square brackets, D forms with d. No end group written: not given here. Me2a = asymmetric dimethyl (on arginine); pT = C[C@@H](OP(=O)(O)O)[C@H](N)C(=O)O

To fix the notation:
B1: KDM4C double tudor domain (KDM4C-DTD), HaloTag-tagged, wild type (domain or fragment)
chain: KVISVGQTVITKHRNTRYYSCRVMAVTSQTFYEVMFDDGSFSRDTFPEDIVSRDCLKLGPPAEGEVVQVKWPDGKLYGAKYFGSNIAHMYQVEFEDGSQIAMKREDIYTLDEELP
B2: KDM4B double tudor domain (KDM4B-DTD), HaloTag-tagged, wild type (domain or fragment)
chain: RAVSLGQVVITKNRNGLYYRCRVIGAASQTCYEVNFDDGSYSDNLYPESITSRDCVQLGPPSEGELVELRWTDGNLYKAKFISSVTSHIYQVEFEDGSQLTVKRGDIFTLEEELP
B3: KDM4A-DTD N931D (domain or fragment)
chain: ALQSITAGQKVISKHKNGRFYQCEVVRLTTETFYEVDFDDGSFSDNLYPEDIVSQDCLQFGPPAEGEVVQVRWTDGQVYGAKFVASHPIQMYQVEFEDGSQLVVKRDDVYTLDEELP
B4: KDM4A-DTD triple mutant N931D/D939R/D945R (DRR) (domain or fragment)
chain: ALQSITAGQKVISKHKNGRFYQCEVVRLTTETFYEVDFDDGSFSRNLYPERIVSQDCLQFGPPAEGEVVQVRWTDGQVYGAKFVASHPIQMYQVEFEDGSQLVVKRDDVYTLDEELP
modifications: HaloTag-Alexa 660 ligand conjugated to the HaloTag in the far western
B5: KDM4A double tudor domain (KDM4A-DTD), HaloTag-tagged, wild type (domain or fragment)
chain: ALQSITAGQKVISKHKNGRFYQCEVVRLTTETFYEVNFDDGSFSDNLYPEDIVSQDCLQFGPPAEGEVVQVRWTDGQVYGAKFVASHPIQMYQVEFEDGSQLVVKRDDVYTLDEELP

Holding throughout (assay): FP
Test [1] concerns the target B4.
Test [2] concerns the target B5.
Test [3] concerns the target B3.
In test [4] the target is T1, ING2-PHD.
T1 chain: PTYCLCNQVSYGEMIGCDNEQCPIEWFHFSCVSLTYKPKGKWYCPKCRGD

The target of test [5] is T2, KDM4A-DTD N940A (human, UniProt O75164 895-1011, N940A).
T2 sequence: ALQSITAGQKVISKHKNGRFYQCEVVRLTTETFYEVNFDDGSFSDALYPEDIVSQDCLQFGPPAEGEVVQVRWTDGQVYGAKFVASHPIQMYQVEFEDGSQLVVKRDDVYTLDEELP

The target of test [6] is T3, KDM4A-DTD D945S (human, UniProt O75164 895-1011, D945S).
T3 sequence: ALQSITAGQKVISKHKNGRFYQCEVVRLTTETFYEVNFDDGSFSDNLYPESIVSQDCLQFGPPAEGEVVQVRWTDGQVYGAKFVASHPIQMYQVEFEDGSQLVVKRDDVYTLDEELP

Test [7] concerns the target B2.
Test [8] addresses B1.
Test [9] deals with B1.
Test [10] deals with KDM4B-DTD N960A (human, UniProt O94953 917-1031, N960A).
The target in test [11] is T4, KDM4B-DTD N951M (Homo sapiens).
T4 chain: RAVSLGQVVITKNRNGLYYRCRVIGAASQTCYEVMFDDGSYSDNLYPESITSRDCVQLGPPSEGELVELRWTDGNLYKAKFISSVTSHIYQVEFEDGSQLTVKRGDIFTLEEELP

In test [12] the target is T5, KDM4B-DTD N951G (Homo sapiens).
T5 chain: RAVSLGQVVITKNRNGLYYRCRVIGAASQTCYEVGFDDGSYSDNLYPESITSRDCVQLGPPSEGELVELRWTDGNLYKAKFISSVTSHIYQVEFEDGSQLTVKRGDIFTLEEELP

The target of test [13] is KDM4B-DTD S965D (human, UniProt O94953 917-1031, S965D).
Test [14] deals with B2.
Test [15] deals with H3K27me3.
For test [16], the target named is H3K9me3.
Test [17] has as its target H3K9me3. The source holds these as a separate data set.
The target of test [18] is H3K27me3. This is another data set of the same source.
Test [19] has as its target H3K27me3. The source holds these as a separate data set.
In test [20] the target is H3T3phK4me3 peptide (UniProt P68431, phosphothreonine at T3; trimethyl-lysine at K4).

Chain of KDM4B-DTD S965D (O94953 917-1031 S965D): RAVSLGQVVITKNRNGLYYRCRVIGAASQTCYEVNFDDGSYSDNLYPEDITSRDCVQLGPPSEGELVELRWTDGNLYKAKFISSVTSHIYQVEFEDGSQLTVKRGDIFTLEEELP
Chain of KDM4B-DTD N960A (O94953 917-1031 N960A): as the sequence (O94953 917-1031 S965D) above, with N44A, D49S counted along it

In the case of ARTK(Me3)QTARKSTGGK (also: fluorescein label, end not given here) [H3K4me3 peptide, fluorescein-labelled], the Kd is 370 µM in [1]; 2.7 µM in test [2]; 2.7 µM in test [3]; 5.8 µM in [4]; 74.1 µM in test [5]; 151 µM in test [6].
Turning to RKQLATK(Me)AARKSAPAT (also: fluorescein label, end not given here) [H3K23me1 peptide (monomethylated H3K23), fluorescein-labelled], the Kd in [3] is 31.1 µM; in test [7], 155 µM; in [8], 520 µM.
In the case of RKQLATK(Me3)AARKSAPAT (also: fluorescein label, end not given here) [H3 (17-32) K23me3 peptide, fluorescein-labelled], the equilibrium dissociation constant (Kd) in test [9] was found to be 73.6 µM; in [4], 257 µM; in test [10], 107 µM; in test [11] it was 41.4 µM; in test [12] it was 32.6 µM; in test [13] it was 16.4 µM.
As to RKQLA[pT]K(Me3)AARKSAPAT (also: fluorescein label, end not given here) [H3T22phK23me3 peptide, fluorescein-labelled], the Kd in [3] was 18.7 µM; in test [7], 130 µM and 259 µM; in test [8], 507 µM.
For the molecule AKRHRK(Me3)VLRDN (also: fluorescein label, end not given here) [H4K20me3 peptide, fluorescein-labelled], the Kd came to 60 µM in test [14] and 58.7 µM in [9].
In [15], B1 returned a Kd of 104 µM.
For RKQLATK(Me3)AAAKSAPAT (also: fluorescein label, end not given here) [H3K23me3R26A peptide, fluorescein-labelled], the figures for the Kd in [3], in [7] and in test [8] were 27.7 µM, 180 µM and 72.5 µM, respectively.
Consider ARKSTGGK(Me3)APRKQLATK (also: fluorescein label, end not given here) [H3K14me3 peptide, fluorescein-labelled], for which the Kd worked out at 158 µM in test [1], 108 µM in [2], 165 µM in test [14] and 166 µM in test [9].
Take RKQLATK(Me2)AARKSAPAT (also: fluorescein label, end not given here) [H3K23me2 peptide (dimethylated H3K23), fluorescein-labelled]: the Kd turned out to be 2.6 µM in test [3], 35.3 µM in test [7] and 180 µM in test [8].
Consider B2, for which the Kd in test [16] came to 800 µM; in [15] it was 140 µM.
Consider RKQLATK(Me3)AAR(Me2a)KSAPAT (also: fluorescein label, end not given here) [H3K23me3R26me2a peptide, fluorescein-labelled], for which the Kd in test [3] amounted to 6 µM; in test [7], 53.1 µM; in test [8], 43.7 µM.
As to B3, the values for the Kd in test [17] and in [18] were 83.3 µM and 98.6 µM, respectively.
On to B4, for which the affinity in [19], expressed as Kd, was 570 µM.
On to B5, for which the Kd in [20] and in test [15] was 122 µM in each case.
